A short description of this data set: soluble on expression in E. coli; label from the status in PepcDB or PDB records.
Consider “DKKQLVLVLCASGATSSMLANAITKGAKQEGVNVESIAMAYGQHKDVIADYDLIILAPQMASMYEELKADCASKGTKSATTTGKEYVKLTRDPVGALKFALDIINE”, for which the “soluble on expression in E. coli” value is reported as “not soluble”.
For the sequence “DKSPSSLTLALGKNIAGRPTVADLARMPHLLVAGTTGSGKSVAVNAMVLSLLFKASHNDLRMLMIDPKMLELSVYQGIPHLLAPVVTDMKEAANGLRWCVAEMERRYKLMSAVGVRNLAGFNKKVKDAEEAGQPLMDPLFKPNPDLSEVPRPLQKLPFIVIFIDEFADMMMIVGKKVEELIARLAQKARAAGIHLILATQRPSV”, the “soluble on expression in E. coli” value is “not soluble”.
In the case of “DLADRFAELERRYDARLGVYVPATGTTAAIEYRADERFAFCSTFKAPLVAAVLHQNPLTHLDKLITYTSDDIRSISPVAQQHVQTGMTIGQLCDAAIRYSDGTAANLLLADLGGPGGGTAAFTGYLRSLGDTVSRLDAEEPELNRDPPGDERDTTTPHAIALVLQQLVLGNALPPDKRALLTDWMARNTTGAKRIRAGFPADWKVIDKTGTGDYGRANDIAVVWSPTGVPYVVAVMSDRAGGGYDAEPREALLAEAATCVAGVLA”, the “soluble on expression in E. coli” value is on record as “soluble”.
Consider “DLYRRQQGELKQTKLQNSILLSVSHDLRTPLATIIGTLTTLNEYMPKLNDLERKELLDSATSESHRLHQYIENLLQATKLQHGTLKITKKDEPIANIVRDAVSRLPNYTEKVSMNMDDSVGYLSVSRSL”, for which the “soluble on expression in E. coli” value is recorded as “not soluble”.
In the case of “DMIVRQAGPADAAAMSAVLHPILTGWNSARSGDAETVLTRYIDDPDRLSCAVACEGERILGFQSLKLARAGNVYDLPAGWGIIGTYVAGDAGRRGIGRALFTETLAAARRAGLAHIDATIGADNAQGLPYYSALGFQTWRELDG” it was “not soluble”; in that of “DRLGQPPSGYGVLLSVHEDKTVDVFTSGRKMRLTCSPNIDTDTLALGQTVRLNEALTIVEAGTYEQVGEISTLREVLDDGLRALVVGHADEERIVWLAAPLAAVFADPEADIIAYDADSPTRKLRPGDSLLVDTKAGYAFERIPKAEVEDLVL”, “soluble”; in that of “DSPPSESLPSADSNRTHIVNGVGAFQSKVHPSIVTVLYFPGPVTSAISSDDQSFETSIVGHSVVIRPAPNVTAKTVGNINITTRAMNVSLTMRIAERPEDAATQLVFRALSEVEAFETRVAAEVERVRQEVEHEYERRHRNLEREVTHATEQAIARRMLMRHEGREFGAIARNEHNIIARVTRAQWIGPELYLYFEIQNRDSTPYHLAHVRLLGPTGESDHVDHLEFAGAGDVIDGSLGTVLSGQRGRGIVHVRDAARFAGKPFTFLVSEARERRAVSIGGITW”, “not soluble”.
As to “DVETCRDERCYRLWINSLGIDSYVNNVFEDVRNGWILLEVLDKVSPSSVNWKHASKPPIKMPFRKVENCNQVIKIGKQLKFSLVNVAGNDIVQGNKKLILGLLWQLMRFHMLQLLKSLRSEMTDADILSWANRKVRTMGRKLQIESFKDKSLSSGLFFLNLLWAVEPRVVNWNLVTKGETDDEKRLNATYIVSVARKLGCSVFLLPEDIVEVNQKMILILTASIMYWSLQR”, the “soluble on expression in E. coli” value was “soluble”.
For “DVIELTDDSFDKNVLDSEDVWMVEFYAPWCGHCKNLEPEWAAAASEVKEQTKGKVKLAAVDATVNQVLASRYGIRGFPTIKIFQKGESPVDYDGGRTRSDIVSRALDLFSDNAPPPELLE” the value was “soluble”; for “DVQLQASGGGLVQPGGSLRVSCAASGFTFSSYHMAWVRQAPGKGLEWVSTINPGDGSTYYADSVKGRFTISRDNAKNTLYLQMNSLKSEDTAVYYCAKYSGGALDAWGQGTQVTVSSQSEQKLISEEDLNHHHHH”, “soluble”; for “EALSSKVQQLERSIGLKDLAMADLEQKVLEMEASTYDGVFIWKISDFPRKRQEAVAGRIPAIFSPAFYTSRYGYKMCLRIYLNGDGTGRGTHLSLFFVVMKGPNDALLRWPFNQKVTLMLLDQNNREHVIDAFRPDVTSSSFQRPVNDMNIASGCPLFCPVSKMEAKNSYVRDDAIFIKAIVDLTGL”, “soluble”.
On to “EAQTETCTVAPRERQNCGFPGVTPSQCANKGCCFDDTVRGVPWCFYPNTIDVPPEEESEF”, for which the “soluble on expression in E. coli” value is “soluble”.
For “EDFFNAKVQEQIERYQRYHNTAYNLEPDIKFSPGGLRDLHLLYWVALRHSGALTLEAILQSGFIYPQEYQQLQESRAFLFKVRFALHLILKRYDNRLLFDRQIKVSELLGFRGEGNPAVEKMMKCFFQALHRISLISNLLIQHYRENVLSSNQDTVIDQLDDDFQLINQSLCLRNSFVFQEKPARILDLFFYLTQYEHVNIHSDTLRQL” the value was “not soluble”.

The values above are taken from the DeepSol protein solubility set.
